Assay results: article PMC8967028

Key:
Assay in all cases: SPR; Biacore T200; […], single cycle kinetics, […]; 25°C; PBS, 0.05% Tween 20, 3.4 mM EDTA; 1:1 binding model; triplicate; […]
[1] = target: SARS-CoV-2 B.1.617.2 (Delta) spike (S) receptor binding domain (SARS-CoV-2)
[2] = target: SARS-CoV-2 B.1.351 (Beta) spike (S) receptor binding domain (SARS-CoV-2)
[3] = target: SARS-CoV-2 B.1.1.529 (Omicron) spike (S) receptor binding domain (SARS-CoV-2)

Substance: VHH-72-Fc S56M (Fc fusion)
- koff [1]: 0.001 s⁻¹
- koff [2]: 0.013 s⁻¹

Substance: VHH-72-Fc S56M,L97W (Fc fusion)
- koff [1]: 0.00039 s⁻¹
- koff [2]: 0.0025 s⁻¹
- koff [3]: 0.7 s⁻¹

Substance: VHH-72-Fc L97W,T99V (Fc fusion)
- koff [1]: 0.00016 s⁻¹
- koff [2]: 0.00056 s⁻¹
- koff [3]: 0.061 s⁻¹

Substance: VHH-72-Fc T99V (Fc fusion)
- koff [1]: 0.00062 s⁻¹
- koff [2]: 0.0077 s⁻¹

Substance: parental VHH-72-Fc (Fc fusion)
- koff [1]: 0.0051 s⁻¹
- koff [2]: 0.029 s⁻¹

Substance: VHH-72-Fc S56M,T99V (Fc fusion)
- koff [1]: 0.00035 s⁻¹
- koff [2]: 0.00068 s⁻¹
- koff [3]: 0.0252 s⁻¹

Substance: VHH-72-Fc L97W (Fc fusion)
- koff [1]: 0.00081 s⁻¹
- koff [2]: 0.0079 s⁻¹

Substance: VHH-72-Fc S56M,L97W,T99V (Fc fusion)
- koff [1]: 0.00023 s⁻¹
- koff [2]: 0.00039 s⁻¹
- koff [3]: 0.007 s⁻¹
